Data published in patent US20170165321A1, “METHOD FOR REDUCING AND/OR DELAYING PATHOLOGICAL EFFECTS OF HUMAN IMMUNODEFICIENCY VIRUS I (HIV) OR FOR REDUCING THE RISK OF DEVELOPING ACQUIRED IMMUNODEFICIENCY SYNDROME (AIDS)” (Bionor Immuno AS, priority 2014, published 2017).
Where no end group is shown, it is not given here.

Key:
rats = assay: Single-dose intravenous toxicity study in rats; type: in vivo, rat
Protocol: (§1) Toxicity studies were performed in mice and rats on the peptide composition of the vaccine in Example 2. The mouse was selected for the study to provide comparative data from a second commonly used rodent species. The test substance was a mixture of four peptides supplied as one vial containing lyophilised material for reconstitution with physiological saline, and dose levels were expressed in terms of total peptide load. The individual peptides was present in ratio 1:1:1:1 w/w giving dose levels of each peptide of 0.0075 mg/kg body weight, 0.075 mg/kg body weight and 0.75 mg/kg body weight, which are up to 500 fold the intended human dose. The test animals were divided into four groups of ten animals each (five males and five females); a saline control group and groups for low, intermediate and high doses. The test composition was administered once, by intravenous infusion into a tail vein at a dose rate of 3 ml/minute. The animals were killed at day 15 and 16 by intraperitoneal injection of sodium pentobarbitone.

[1] = test system: HIV-1 DNA (HIV-1 gag gene); assay: Proviral DNA by real-time PCR in re-boosting study CT-BI Vacc-4x 2012/1; type: in vivo, human; conditions: PP
Protocol: The study CT-BI Vacc-4x 2012/1 (EudraCT Number: 2012-002281-12) is an open label, multicenter, follow-up, re-boosting study of subjects who previously completed the immunization regimen with Vacc-4x active and stopped ART (at Week 28) in the CT-BI Vacc-4x 2007/1 Study (EudraCT Number 2007-006302-13). No restart of ART is required. The subjects will be re-boosted with two immunizations (Visit 2 and Visit 3) of Vacc-4x, 1.2 mg peptides (12 mg/mL), with a 2 week interval between immunizations.
HIV-1 DNA levels will be determined by real-time PCR (Taqman) assay targeting HIV-1 gag gene. Briefly, DNA for each subject at visit 2, 4, 6, 9 and 10 will be extracted from total PBMCs (1-4 million cells), eluted in appropriate storage buffer, quantified and stored at −20° C. until used. Equal amounts of DNA (≈300 ng) will be used to quantify gag and albumin genes in order to determine the number of copies of HIV-DNA per million of cells.
There was a decrease in proviral DNA levels of approximately 50% after immunization while on ART, based on geometric means.

mice = assay: Single-dose intravenous toxicity study in mice; type: in vivo, mouse
Protocol: as §1

[2] = test system: patients infected with HIV-1; assay: Phase II randomized placebo-controlled study CT-BI Vacc-4x 2007/1; type: in vivo, human
Protocol: The Phase II Study CT-BI Vacc-4x 2007/1 (EudraCT Number 2007-006302-13) was performed in US and Europe (UK, Germany, Spain and Italy). The study was a randomized, double-blind, multicenter, immunogenicity study of Vacc-4x versus placebo in patients infected with HIV-1 who have maintained an adequate response to ART. The primary objective was to evaluate the effect of Vacc-4x immunizations versus placebo on CD4 counts, T-cell function (ELISPOT, T-cell proliferative responses and intracellular cytokine staining) and the response to interruption of ART. The necessity to resume ART between the interruption of ART at Week 28 and the end of the study at Week 52, due to decreased CD4 count or increased viral loads, was monitored as one of the primary efficacy endpoints.

rabbit = assay: Rabbit study of intradermal Vacc-4x with concomitant GM-CSF; type: in vivo
Protocol: In a rabbit study the effect of Vacc-4x was evaluated in the presence of concomitant GM-CSF, the adjuvant used in the clinical program.

HIV positive subjects = assay: Open-label re-boost follow-up study CTN BI Vacc-4x/2009/1; type: in vivo, human
Description: CTN BI Vacc-4x/2009/1 was an open-label follow-up of study CTN B-HIV-2/2001 to determine whether a re-boost with Vacc-4x could reactivate or increase the immune response obtained during the immunization performed in the CTN B-HIV-2/2001 study. The secondary objectives were to evaluate: the in vivo immunogenicity of Vacc-4x by evaluation of DTH and to compare the DTH response to DTH in the initial study; the effect of Vacc-4x on CD4 counts, CD8 counts and HIV viral RNA; and the safety and tolerability of Vacc-4x. All 26 subjects included in the study received two booster administrations of Vacc-4x.

[3] = single intravenous dose, total peptide load
[4] = single intravenous infusion, up to 0.75 mg/kg of each peptide
[5] = 26 subjects, two booster administrations

B1: Vacc-4x: four synthetic peptides (Vacc-10, Vacc-11, Vacc-12, Vacc-13 acetate) corresponding to conserved domains on HIV-1 p24; SEQ ID NOs 3, 6, 11, 18 (peptide)
chain 1: APTRAKRRVVQREKRAV
chain 2: DRPEGIEEEGGERDR
chain 3: QLLLNGSLAEEEIVI
chain 4: GGAKRRVVGGAKRRVVGGQREKR
modifications: also: acetate salts
- safety margin over the planned human dose level (rats; from no effect level): 500 fold
- no effect level (rats; [3]): > 3 mg/kg
- adverse reactions (rats; [4]): no adverse reactions
- Proviral DNA, Geometric mean ([1]; Baseline, n 26): 22.3 copies/mL
- Proviral DNA, Mean ([1]; Baseline, n 26): 98.4 copies/mL
- Proviral DNA, Median ([1]; Baseline, n 26): 57.0 copies/mL
- Proviral DNA, Geometric mean ratio (Week 4/Baseline) ([1]; n 26): 0.5
- Proviral DNA, Geometric mean ([1]; Week 4, n 26 (Table 3)): 11.4 Copies/mL
- Proviral DNA, Mean ([1]; Week 4, n 26 (Table 3)): 93.9 Copies/mL
- Proviral DNA, Median ([1]; Week 4, n 26 (Table 3)): 34.5 Copies/mL
- Proviral DNA, Geometric mean ([1]; Week 4, n 27 (Table 2)): 12.9 copies/mL
- Proviral DNA, Mean ([1]; Week 4, n 27 (Table 2)): 100.8 copies/mL
- Proviral DNA, Median ([1]; Week 4, n 27 (Table 2)): 45.0 copies/mL
- safety margin over the planned human dose level (mice; from no effect level): 500 fold
- no effect level (mice; [3]): > 3 mg/kg
- adverse reactions (mice; [4]): no adverse reactions
- percentage change in CD4 count between Week 28 and last CD4 assessment before resumption of ART, versus placebo ([2]; ITT analysis population): no effect compared with placebo
- proportion of subjects requiring resumption of ART after ART cessation at Week 28, versus placebo ([2]; ITT analysis population): did not reduce
- time to restarting ART versus placebo ([2]; ITT analysis population): similar
- change in HIV-1 RNA from Week 28 through to Week 52 versus placebo ([2]; after ART cessation): statistically significant difference between groups in favour of Vacc-4x
- safety concern ([2]; in vivo): No safety concern
- Week 52 (LOCF) viral load versus placebo ([2]; post-hoc analysis): statistically significantly lower
- average viral load versus placebo ([2]; subgroup who remained off ART until Week 52): lower in the Vacc-4x-treated subjects than the placebo group
- HIV-1 RNA AUC versus placebo ([2]; subjects who remained off ART at Week 52): lower in the Vacc-4x group than in the placebo group
- viral load (VL) set point versus placebo and versus historic preART values ([2]; with rhuGM-CSF (Leukine) as adjuvant): significant reduction
- immunogenicity, T-cell proliferative responses ([2]; with rhuGM-CSF as adjuvant): immunogenic, inducing proliferative responses in both CD4 and CD8 T-cells
- limiting toxicology (rabbit): no limiting toxicology
- local intradermal reactions (erythema, edema) versus control animals (rabbit): slightly more pronounced
- systemic reactions (rabbit): no systemic reactions
- adverse events possibly/probably related to the study treatment (HIV positive subjects; 26 subjects): 60
- patients reporting swelling related to the immunization (HIV positive subjects; 26 subjects): Five
- related adverse events that were mild (HIV positive subjects; 26 subjects): 98%
- serious adverse events (HIV positive subjects; 26 subjects): No patient reported serious adverse events
- subjects reporting AEs (HIV positive subjects; [5]): 23 subjects
- total AEs reported (HIV positive subjects; [5]): 74 AEs
- duration of T cell responses induced by Vacc-4x peptides (HIV positive subjects; before re-boost): up to seven
- effect of re-boosting on CD4, CD8 and viral load (HIV positive subjects; two booster administrations): no negative effect
